One block for each binder: values may come before it.
What was measured:
Settings in all cases: both partners purified
[1] = target: T1, full-length human Bcl-2 protein (human, UniProt P10415 1-239); test: NMR titration; Nur77 peptide added at 1:6, 1:12 and 1:24 molar ratio to 0.3 mM Bcl-2; 1H-15N TROSY-HSQC, chemical shift perturbations; 5 mM DPC micelles, 20 mM NaPi, 20 mM NaCl, 2 mM TCEP, pH 6.0
T1 construct: three additional N-terminal residues left by the design of the pET-15b expression vector; Bcl-2 (B-cell lymphoma 2), human, full length, 239 aa; 15N (or 13C,15N) uniformly labelled for NMR; Surmise: GSH is what is left after the pET-15b His tag is cut off with thrombin; also called B-cell lymphoma 2; intact human Bcl-2; source: in DPC micelles

[2] = target: T2, Bim (138-174) BH3 peptide from Homo sapiens (Homo sapiens, N-terminal acetyl (Ac-); C-terminal amide (-NH2)); test: NMR titration; Bim-BH3 peptide added at 1:1, 1:3 and 1:6 molar ratio to 0.4 mM Bcl-2ΔN(1-82); 1H-15N TROSY-HSQC; 5 mM DPC micelles, 20 mM NaPi, 20 mM NaCl, 2 mM TCEP, pH 6.0; clear samples after centrifugation
T2 construct: Bim, Homo sapiens, residues 138-174; The peptide formed a colloidal suspension in buffer; spectra were recorded on clear samples after centrifugation; also called Bim-BH3 peptide; Bim peptide; source: synthetic peptide, bought: GenScript

[3] = target: T1, full-length human Bcl-2 protein; test: NMR titration; Bax-BH3 peptide added at 1:1, 1:3, 1:6 and 1:12 molar ratio to 0.3 mM Bcl-2 or 0.25 mM Bcl-2 ΔTM; 1H-15N TROSY-HSQC, chemical shift perturbations; 5 mM DPC micelles, 20 mM NaPi, 20 mM NaCl, 2 mM TCEP, pH 6.0, 310 K
Bcl-2 ΔTM (aa 1-207) = target: T3, Bcl-2 ΔTM (aa 1-207) (human, UniProt P10415 1-207); test: as above
T3 construct: three additional N-terminal residues left by the design of the pET-15b expression vector; Bcl-2, human, residues 1-207; a stop codon ends the protein at position 207; 15N labelled for NMR; Made from the full-length construct by site-directed mutagenesis (stop codon TAA); also called Bcl-2 ∆TM; soluble variant with the C-terminal anchor removed; source: E. coli, pET-15b, purified as the …
T3 sequence (P10415 other isoform, or with tags, fused parts or gaps mutant): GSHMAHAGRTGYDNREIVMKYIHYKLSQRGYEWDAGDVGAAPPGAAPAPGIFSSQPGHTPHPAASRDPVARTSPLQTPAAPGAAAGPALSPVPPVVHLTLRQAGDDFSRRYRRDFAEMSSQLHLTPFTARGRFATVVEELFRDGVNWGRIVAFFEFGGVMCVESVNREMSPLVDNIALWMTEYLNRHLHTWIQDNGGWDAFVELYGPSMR

T2 sequence (peptide, as listed by the source): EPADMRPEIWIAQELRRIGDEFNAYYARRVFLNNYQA

binding result [1]: binds
B1: Nur77 peptide (peptide)
peptide: Ac-FSRSLHSLL-NH2
notes: Nur77 (NR4A1), 9-residue peptide; source: synthetic peptide, bought: GenScript

binding result [2]: binds
B2: Bcl-2 ΔN(1-82) (domain or fragment, human)
chain: GSHMGPALSPVPPVVHLTLRQAGDDFSRRYRRDFAEMSSQLHLTPFTARGRFATVVEELFRDGVNWGRIVAFFEFGGVMCVESVNREMSPLVDNIALWMTEYLNRHLHTWIQDNGGWDAFVELYGPSMRPLFDFSWLSLKTLLSLALVGACITLGAYLGHK
notes: three additional N-terminal residues left by the design of the pET-15b expression vector; added start methionine: the construct starts its N-terminus with residues MGP (M before G83, P84); Bcl-2, human, the first 82 N-terminal amino acids deleted, C-terminal residues kept (full length is 239 aa); Gene bought from GenScript and sub-cloned into pET-15b; source: E. coli, pET-15b, purified as the …

binding result [3]: binds
binding result (Bcl-2 ΔTM (aa 1-207)): binds
B3: 36-mer Bax-BH3 peptide from Mus musculus (peptide)
peptide: Ac-QPPQDASTKKLSECLRRIGDELDSNMELQRMIADVD-NH2
notes: Bax, Mus musculus, BH3 region, 36 residues; also called Bax-derived BH3 peptide; source: synthetic peptide, bought: GenScript
